From the supplement of paper PMC9170038

System: MS2 coat protein
Experiment: apparent KD of MS2 coat protein; designed switch direction (-1 OFF switch, 1 ON switch): 1; higher = weaker reporter binding
How it was run: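 The reported apparent KD is a per-design median over clusters, from curve fits of normalised cluster fluorescence. Protein titrations used SNAP-549-labelled MS2 coat protein, doubled from 0.7 or 1.5 nM to 3 µM, in Tris-HCl pH 7.5 buffer with KCl, MgCl2, BSA, DTT, tRNA and Tween-20, with no input, 200 uM small-molecule ligand, or an oligonucleotide input. The RNA switches were transcribed on Illumina chips by stalled E. coli RNA polymerase.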

[1] = input ligand: microRNA oligo, concentration not stated
[2] = Eterna round: R95, input ligand: FMN 200 uM
[3] = Eterna round: R95, input ligand: microRNA oligo, concentration not stated
[4] = Eterna round: R95, input ligand: none

| Sequence | apparent KD of MS2 coat protein (input ligand: FMN 200 uM) | apparent KD of MS2 coat protein [1] | apparent KD of MS2 coat protein (input ligand: none) | apparent KD of MS2 coat protein [2] | apparent KD of MS2 coat protein [3] | apparent KD of MS2 coat protein [4] |
| --- | --- | --- | --- | --- | --- | --- |
| CUGGCGCGCACAGGAUAUGCGGCCGGCAAGGUGGCAGAAGGGUGAUAAACAGACGACAUGAGGAUCACCCAUGUCGCAAAGAAU [Arsobe] (Eterna round: R96, puzzle: Same State NG 1) | 214 nM | 71.3 nM | 85.4 nM | – | – | – |
| GGAGCCGGCACCGAGGAUAUUCAUAUUAAAACAUGAGGAUCACCCAUGUACGCCAGAAGGCGUUGGGAGAAGGCGGAUCGGCUCG [Xeonanis - 22] (puzzle: Same State 2) | – | – | – | 57.6 nM | 79.9 nM | 362 nM |
| AGAAGACAUGAGGAUCACCCAUGUAUGAAAAGUACAGGAUAUCAUGAGCUAAGGUGCGCAUGAGAAGGGUGAAAAU [Aatle] (puzzle: Same State 1) | – | – | – | 549 nM | 166 nM | 70.3 nM |
| UUUGGGUGGCUGGAGGAUAUCCUGGUUGUUACAUGAGGAUCACCCAUGUGCCGCGCGGUUCGCGAGGAGAAGGCUGGCGGCCGUU (Eterna round: R96, puzzle: Same State 2) | 42.4 nM | 74.4 nM | 154 nM | – | – | – |
| UGUCCAGCCUGAGCUGGACAAAAGCAUGUACAUGAGGAUCACCCAUGUUCAUGUACAAGCUUUUUGCUCGUCUUAUA [salish99_208a_r3_044] (puzzle: Sensor for hsa-mir-208a) | – | – | – | 404 nM | 13.8 nM | 415 nM |
| AGCUAGUACCGAGGAUAUACGUACAUGAGGAUCACCCAUGUAUACAUGAUUUAAUGAGACUACAUGUAGAAGGCGGUACUAGCA [JL SSNG2 1.24] (Eterna round: R96, puzzle: Same State NG 2) | 12.4 nM | 39 nM | 53.7 nM | – | – | – |
| GAGCUCGUGUGAGGAUAUGCCGCCGUUUCGGCUGCAGAAGGUGCUACGUUACAUGAGGAUCACCCAUGUCUCUGUUGUUUCGUC [salish99_SSNG1_r04_961] (Eterna round: R96, puzzle: Same State NG 1) | 25.1 nM | 24.2 nM | 30 nM | – | – | – |
| GUAAAACAUGAGGAUCACCCAUGUAAUAAUAUGGGAGGAUAUCAGAUUUAAUUUAAUUUAUGAGAAGGCCUAAAUG [Mat - Same State 1 - Mod of Eli - D59] (puzzle: Same State 1) | – | – | – | 57.4 nM | 181 nM | 427 nM |
| GAGGAUGAUUUACAGGAUAUAUAGAAGAUGACAUGAGGAUCACCCAUGUAAGAGAGAGGAGGGAGAUAGAAGGGUAAGGGAUGUG [JR_SS2_Sub41] (puzzle: Same State 2) | – | – | – | 35.4 nM | 27.8 nM | 49.6 nM |
| CUGAGCAAUCAAGGAUAUCACGUCGAUUAGACGUGAGAAGGUGAUCAUCACAUGAGGAUCACCCAUGUGUUACAUGGAGCUCAG [Brourd's SSNG1/1-A2 mod 4] (Eterna round: R96, puzzle: Same State NG 1) | – | 610 nM | – | – | – | – |
| ACAUGAGACAAAGGAUAUGGUGUACCUACAUGUGACAUGAGGAUCACCCAUGUGGUAAGUAUGACUCAGAAGGUUGAGAUAUGU [Equivalance 74 - Jieux - Same State NG 2] (Eterna round: R96, puzzle: Same State NG 2) | 37 nM | 203 nM | 299 nM | – | – | – |
| GUGCGGGUGCCACAGGAUAUACGUGGAUCGACAUGAGGAUCACCCAUGUAUAUCCUAAUAAUUGCGUAGAAGGGUGGUCAGCCGU [Enbebiqu] (puzzle: Same State 2) | – | – | – | 85.9 nM | 308 nM | 340 nM |
| AGUCCAGCCUGAGCUGGACAAAAGCAUGUACAUGAGGAUCACCCAUGUUCAUGUACAAGCUUUUUGCUCGUCUUAGC [salish99_208a_r3_063] (puzzle: Sensor for hsa-mir-208a) | – | – | – | 837 nM | 14.6 nM | 648 nM |
| GCUACCAAUGAAGCCUACAUGAGGAUCACCCAUGUAUGUAGGCAGGAUAUCGAUUGCAAAGCGAUCGAGAAGGGCUUAGGUAGC [Mat - Same State NG 3 - JL Mod - D91] (Eterna round: R96, puzzle: Same State NG 3) | 35.9 nM | 79.6 nM | 95.8 nM | – | – | – |
| UUAAUGAAGUAAGGAUAUACAUGAGGAUCACUCGUAGAAGGUACUAUACAUGAGGAUCACCCAUGUGCCGGUCAGAAGACUGGA [Mat - Same State NG 1 - JL mod - D5] (Eterna round: R96, puzzle: Same State NG 1) | 755 nM | 534 nM | 723 nM | – | – | – |
| AUUAUACAUGAGGAUCACCCAUGUCAAUGUAGUCGAGGAUAUGGGUUGCUAUGAGGCGUACUAGAAGGCGAGGAGA [Mat - Same State 1 - Mod of JL - D17] (puzzle: Same State 1) | – | – | – | 61.5 nM | 99.9 nM | 82.8 nM |
| GGCGAACAGGCCGACAUGAGGAUCACCCAUGUGGCCUCAUGUCAGGAUAUCGGGAAGGAGGAAACCGAGAAGGGACGGUGAGCC [AK SSNG3-V2-44] (Eterna round: R96, puzzle: Same State NG 3) | 88.9 nM | 5.6 nM | 65.1 nM | – | – | – |
| GUAGGACAUGAGGAUCACCCAUGUAGGAGGGAACGAGGAUAUGUGAUUAGCGAGGAGAGGACAGAAGGCGUGGUAG [JR_SS1_Sub025] (puzzle: Same State 1) | – | – | – | 18.7 nM | 18.3 nM | 21.3 nM |
| UUGUUACAUGAGGAUCACCCAUGUUGUUGUAGAUAAGGAUAUAUAGGAACGAGAGAAAUAAUAGAAGGUAUUAGAC [JR_SS1_Sub059] (puzzle: Same State 1) | – | – | – | – | 28.6 nM | – |
| GCUGCAAUAAACGCCUACAUGAGGAUCACCCAUGUAUGUAGGCAGGAUAUCGUUUGCAAAGCAAACGAGAAGGGCUGUAGUAGC [Mat - Same State NG 3 - JL Mod - D38] (Eterna round: R96, puzzle: Same State NG 3) | 52.6 nM | 59.8 nM | 101 nM | – | – | – |
| GAGCCAGUCCGAGGAUAUUCAUAUUAACACAUGAGGAUCACCCAUGUAGGCUCAGAAGAGCCCUGGGAGAAGGCGGACUGGCUC [SS-NG2-LRO15] (Eterna round: R96, puzzle: Same State NG 2) | 85.5 nM | 455 nM | 1100 nM | – | – | – |
| AUCAAUCUAUCUCAGGAUAUCAUGUCAAAGACAUGAGGAUCACCCAUGUACCAGGAAACUGGUUAUGAGAAGGGAGAUAGAUUGA [Mat - Same State 2 - Mod - D30] (puzzle: Same State 2) | – | – | – | 56.2 nM | 158 nM | 53.2 nM |
| GCUCGGCUGAUGGCCUACAUGAGGAUCACCCAUGUGUGUGGGCAGGAUAUCUAGAUUAAGGAUGUAGAGAAGGGCCUGCCGAGC [SameState NG3 #38] (Eterna round: R96, puzzle: Same State NG 3) | 2620 nM | 340 nM | 972 nM | – | – | – |
